From US20210395344A1 (TWIST BIOSCIENCE, published 2021)
Like-named read-outs stand apart in the source and are kept apart here.

Experiments:
[1] = biological target: T1, Acro COVID S1 (S1N-C82E8) (SARS-CoV-2, UniProt P0DTC2 16-685); assay: phage ELISA
T1 construct: domain: S1

[2] = biological target: T1, Acro COVID S1 (S1N-C82E8); assay: phage ELISA; remark: listed apart in the source

| Binder | ELISA fold over background [1] [fold over background] | ELISA fold over background [2] [fold over background] |
| --- | --- | --- |
| 1-17 (antibody, V domains shown, also called variant 1-17) VH: EVQLLESGGGLVQPGGSLRLSCAASGFTFSSYAMYWVRQAPGKGLEWVSAISGSAGSTYYADSVKGRFTISRDNSKNTLYLQMNSLRAEDTAVYYCARDTNDFWSGYSIFDPWGQGTLVTVSS VL: QSALTQPASVSGSPGQSITISCTGTSSDIGSYNLVSWYQQHPGKAPKLMIYEGTKRPSGVSNRFSGSKSGNTASLTISGLQAEDEADYYCCSYAGSRTYVFGGGTKLTVL | 25.1 | 25.1 |
| 1-42 (antibody, V domains shown, also called variant 1-42) VH: EVQLLESGGGLVQPGGSLRLSCAASGVTFSSYAMSWVRQAPGKGLEWVSAITGSGGSTYYADSVKGRFTISRDNSKNTLYLQMNSLRAEDTAVYYCAKHGSGTIFGVVIAKYYFDYWGQGTLVTVSS VL: QSALTQPASVSGSPGQSITISCTGTSSDVGRYNLVSWYQQHPGKAPKLMIYEGGKRPSGVSNRFSGSKSGNTASLTISGLQAEDEADYYCCSYASSSTLVFGGGTKLTVL | 22.7 | 22.7 |
